Experimental data from patent US20250381284A1 (Eli Lilly, published 2025).

B1: TBP8 (Fab2-VHH) (Fab)
heavy: EVQLVESGGGLVKPGGSLRLSCVASGFTFSSYSMNWVRQAPGKGLEWVSSISSSSSYIYYADSVKGRFTISRDNAKNSLYLQMNSLRAEDTAVYYCARRHGYSNSDAFDTWGQGTLVTVSSASTKGPCVFPLAPSSKSTSGGTAALGCLVKDYFPEPVTVSWNSGALTSGVHTFPAVLQSSGLYSLSSVVTVPSSSLGTQTYICNVNHKPSNTKVDKRVGGGGQGGGGQGGGGQGGGGQGGGGQEVQLLESGGGLVQPGGSLRLSCAASGRYIDETAVAWFRQAPGKGREFVAGIGGGVDITYYADSVKGRFTISRDNSKNTLYLQMNSLRPEDTAVYYCGARPGRPLITSKVADLYPYWGQGTLVTVSSPP
light: DIQMTQSPSAMSASVGDRVTITCRASQGISHYLVWFQQKPGKVPKRLIYAASSLQSGVPSRFSGSGSGTEFTLTISSLQPEDFATYYCLQHNSYPWTFGQGTKVEIKRTVAAPSVFIFPPSDEQLKSGTASVVCLLNNFYPREAKVQWKVDNALQSGNSQESVTEQDSKDSTYSLSSTLTLSKADYEKHKVYACEVTHQGLSSPVTKSFNRGE
B2: TBP5 (Fab1-One Arm Heteromab 2, S124C) (antibody, human IgG4 S228P, kappa, F234A L235A)
heavy 1: EVQLVESGGGLVKPGGSLRLSCVASGFTFSSYSMNWVRQAPGKGLEWVSSISSSSSYIYYADSVKGRFTISRDNAKNSLYLQMNSLRAEDTAVYYCARRHGYSNSDAFDNWGQGTLVTVSSASTKGPCVFPLAPCSRSTSESTAALGCLVKDYFPEPVTVSWNSGALTSGVHTFPAVLQSSGLYSLSSVVTVPSSSLGTKTYTCNVDHKPSNTKVDKRVESKYGPPCPPCPAPEAAGGPSVFLFPPKPKDTLMISRTPEVTCVVVDVSQEDPEVQFNWYVDGVEVHNAKTKPREEQFNSTYRVVSVLTVLHQDWLNGKEYKCKVSNKGLPSSIEKTISKAKGQPREPQVSTLPPSQEEMTKNQVSLMCLVYGFYPSDIAVEWESNGQPENNYKTTPPVLDSDGSFFLYSVLTVDKSRWQEGNVFSCSVMHEALHNHYTQKSLSLSLG
light: DIQMTQSPSAMSASVGDRVTITCRASQGISHYLVWFQQKPGKVPKRLIYAASSLQSGVPSRFSGSGSGTEFTLTISSLQPEDFATYYCLQHNSYPWTFGQGTKVEIKRTVAAPSVFIFPPSDEQLKSGTASVVCLLNNFYPREAKVQWKVDNALQSGNSQESVTEQDSKDSTYSLSSTLTLSKADYEKHKVYACEVTHQGLSSPVTKSFNRGEC
heavy 2: ESKYGPPCPPCPAPEAAGGPSVFLFPPKPKDTLMISRTPEVTCVVVDVSQEDPEVQFNWYVDGVEVHNAKTKPREEQFNSTYRVVSVLTVLHQDWLNGKEYKCKVSNKGLPSSIEKTISKAKGQPREPQVYTLPPSQGDMTKNQVQLTCLVKGFYPSDIAVEWESNGQPENNYKTTPPVLDSDGSFFLASRLTVDKSRWQEGNVFSCSVMHEALHNHYTQKSLSLSLG
notes: One-arm heteromab, hIgG4 PAA, tested as the unconjugated protein; also called OAH2

Biological target: T1, human TfR ECD (human, UniProt P02786 89-760)
T1 construct: extracellular domain; also called Human Transferrin Receptor 1 extracellular domain
Assay: SPR (Biacore 8K), human TfR ECD amine-coupled on CM3 chip, 25 C, 2-state model
Protocol: Target human TfR ECDs were immobilized on a CM3 chip (Cytiva P/N BR100536) using standard NHS-EDC amine coupling. The TfR binding proteins were prepared at a final concentration of 1.8, 0.6, 0.2, 0.067, 0.022, 0.0074, 0.0025 μM respectively by dilution of stock solution into running buffer.
Binding analysis was performed in a single-cycle or multi-cycle kinetics manner. Each analysis cycle consisted of (1) injection of the lowest to highest concentration proteins over all flow channel at 50 μL/min for 200 seconds followed by return to buffer flow for 900 seconds to monitor dissociation phase; (2) regeneration of chip surfaces with injection of 3M magnesium chloride, for 30 seconds at […] over all cells; and (3) equilibration of chip surfaces with a 50 μL (30-sec) injection of HBS-EP+. Data were processed using standard double-referencing and fit to a 2-state binding model using Biacore 8K Evaluation software, to determine the association rate (kₒₙ, M⁻¹s⁻¹ units), dissociation rate (koff, s⁻¹ units), and Rₘₐₓ (RU units). The equilibrium dissociation constant (KD) is calculated from the relationship KD=koff/kₒₙ, and is in molar units.

Binder	Kd [µM]	koff [s⁻¹]	kon [M⁻¹ s⁻¹]
B1	0.0186	0.00671	361000
B2	0.0124		
